Where a chain is given by its changes, count along the chain named.
T1: Recombinant human Dkk-1 (R&D Systems cat no. 1096-DK/CF), 10xHis tag at the C terminal (human, UniProt O94907 32-266)
T1 construct: the actual N-terminus of the purified protein is marked in bold italic after residue 30, but the mark is an image lost in the text; also called rhuDkk-1; hDkk-1
T1 sequence: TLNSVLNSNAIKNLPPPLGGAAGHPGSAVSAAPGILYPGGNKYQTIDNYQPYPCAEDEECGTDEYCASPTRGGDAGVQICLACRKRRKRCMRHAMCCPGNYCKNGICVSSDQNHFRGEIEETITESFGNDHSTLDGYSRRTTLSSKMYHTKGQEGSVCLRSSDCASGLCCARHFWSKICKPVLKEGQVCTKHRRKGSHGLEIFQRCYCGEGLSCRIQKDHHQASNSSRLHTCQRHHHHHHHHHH

B1: L2.4E1 (Fab, V domains shown)
VH: EVQLVESGGGLVQPGGSLRLSCAASGFTFSSYAISWVRQAPGKGLEWVASVSGHGVWTYYPDSVKGRFTISRDNAKNSLYLQMNSLRAEDTAVYYCATSLENYAFDYWGQGTTVTVSS
VL: EIVLTQSPATLSLSPGERATLSCRASESVDDFGISFMNWYQQKPGQAPRLLIYAASKQGSGIPARFSGSGSGTDFTLTISSLEPEDFAVYYCQQSKEVPPTFGGGTKVEIK
notes: G55# and L56# read as gaps; tested as Fab (E. coli lysate, screening mode); human kappa CL and IgG2 CH1 not included here
B2: SL3.3A10 (Fab, V domains shown)
VH: EVQLVESGGGLVQPGGSLRLSCAASGFTFSSYAISWVRQAPGKGLEWVASVSGGGRTYYPDSVKGRFTISRDNAKNSLYLQMNSLRAEDTAVYYCATSLENYAFDYWGQGTTVTVSS
VL: B1 VL with V98L
notes: tested as Fab (E. coli lysate, screening mode); human kappa CL and IgG2 CH1 not included here
B3: L2.P4.D1 (Fab, V domains shown)
VH: EVQLVESGGGLVQPGGSLRLSCAASGFTFSSYAISWVRQAPGKGLEWVASVSGTGLGFQTYYPDSVKGRFTISRDNAKNSLYLQMNSLRAEDTAVYYCATSLDNYAFDYWGQGTTVTVSS
VL: B1 VL
notes: as for B2
B4: SL3.3H8 (Fab, V domains shown)
VH: B2 VH
VL: B1 VL with P100G
notes: as for B2
B5: SL3.4F1 (Fab, V domains shown)
VH: B2 VH
VL: B1 VL with P100S
notes: as for B2
B6: L3.4H5 (Fab, V domains shown)
VH: B2 VH with G54W, R56D, T97S, E100D
VL: B1 VL with M37I, A55G, S95L
notes: as for B2
B7: L3.4H2 (Fab, V domains shown)
VH: B2 VH with G54W, R56D, E100Q
VL: B1 VL with M37I, A55G, S95L
notes: tested as Fab (E. coli lysate, screening mode); human kappa CL and IgG2 CH1 not included here; printed changes identical to L3.4E7
B8: L3.4E10 (Fab, V domains shown)
VH: B2 VH with G54W, R56H, E100Q
VL: B1 VL with M37I, A55G, S95L
notes: as for B2
B9: L3.4E6 (Fab, V domains shown)
VH: B2 VH with G55L, R56G, E100R
VL: B1 VL with M37I, A55G, S95L
notes: as for B2
B10: SL3.1G9 (Fab, V domains shown)
VH: B2 VH
VL: B1 VL with S95L
notes: as for B2
B11: L3.2H10 (Fab, V domains shown)
VH: B2 VH with G54W, G55L, R56G, E100K
VL: B1 VL with M37I, A55G, S95L
notes: as for B2
B12: SL3.4D1 (Fab, V domains shown)
VH: B2 VH
VL: B1 VL with K96M
notes: as for B2
B13: SL3.3B11 (Fab, V domains shown)
VH: B2 VH
VL: B1 VL with S95A
notes: as for B2
B14: SL3.3F4 (Fab, V domains shown)
VH: B2 VH
VL: B1 VL with K96S
notes: as for B2
B15: SL3.4E4 (Fab, V domains shown)
VH: B2 VH
VL: B1 VL with E97D
notes: as for B2
B16: SL3.3C10 (Fab, V domains shown)
VH: B2 VH
VL: B1 VL with P99W
notes: as for B2
B17: L3.2H8 (Fab, V domains shown)
VH: B2 VH with G54W, G55L, R56G, E100Q
VL: B1 VL with M37I, A55G, S95L
notes: as for B2
B18: L3.1D7 (Fab, V domains shown)
VH: B2 VH with G54W, G55F, E100R
VL: B1 VL with M37I, A55G, S95L
notes: as for B2
B19: SL3.4C7 (Fab, V domains shown)
VH: B2 VH
VL: B1 VL with Q94H
notes: as for B2
B20: SL3.1G2 (Fab, V domains shown)
VH: B2 VH
VL: B1 VL with K96I
notes: as for B2
B21: L3.1H3 (Fab, V domains shown)
VH: B2 VH with G54W, G55L, R56H
VL: B1 VL with M37I, A55G, S95L
notes: as for B2
B22: SL3.1F12 (Fab, V domains shown)
VH: B2 VH
VL: B1 VL with T101Y
notes: as for B2
B23: SL3.4F5 (Fab, V domains shown)
VH: B2 VH
VL: B1 VL with S95G
notes: as for B2
B24: SL3.1D2 (Fab, V domains shown)
VH: B2 VH
VL: B1 VL with T101L
notes: as for B2
B25: L3.4E7 (Fab, V domains shown)
VH: B2 VH with G54W, R56D, E100Q
VL: B1 VL with M37I, A55G, S95L
notes: tested as Fab (E. coli lysate, screening mode); human kappa CL and IgG2 CH1 not included here; printed changes identical to L3.4H2
B26: SL3.1F11 (Fab, V domains shown)
VH: B2 VH
VL: B1 VL with K96W
notes: as for B2
B27: SL3.4A10 (Fab, V domains shown)
VH: B2 VH
VL: B1 VL with K96L
notes: as for B2
B28: 4E8.33L (antibody, V domains shown)
VH: B2 VH with G54W, G55L, R56D
VL: B1 VL with M37I, A55G, S95L
B29: 36H.33L (antibody, V domains shown)
VH: B2 VH with G54W, G55F, R56D, E100R
VL: B1 VL with M37I, A55G, S95L

Target: T1, Recombinant human Dkk-1 (R&D Systems …)
Assay: theoretical: koff / estimated kon 1e6 1/Ms (SPR screening 37C)
Description: (§1) For screening assays to determine binding and dissociation rates of huMabJC18 variants to human Dkk1, either BIAcore or ProteOn XPR36 (BioRad, Inc.) systems were used. For the BIAcore assay, biotinylated-human Dkk1 was captured on SA (streptavidin) BIAcore chips according to the supplier's instructions. Biotinylated-human Dkk-1 protein was diluted into HBS-EP, and injected over the chip at a concentration of 5 μg/mL. Flow times across the individual chip channels were selected to achieve an antigen density of approximately 500-600 response units (RU). HBS-EP buffer was used as running buffer. Filtered recombinant E.coli cell lysates were injected at high temperature (37° C.) for 1 min at 30 ul/min, allowing a 1-5 min dissociation phase. Surfaces were regenerated with 8 mM NaOH+8% ethanol. A positive control Fab (clone 24) was injected twice at the start of the experiment, and again at the end of the assay to assess reproducibility.
For the ProteOn assay, biotinylated human Dkk-1 was injected for 1 min at serial fold dilutions empirically determined to yield different levels of immobilization (150-3000 RU) on five channels of a ProteOn NLC Neutravidin sensor chip. The sixth channel was left unmodified to serve as a reference surface. Recombinant Fabs in filtered E. coli lysates were injected at high temperature (37° C.) for 50 sec at 20 μl/min. Running buffer consisted of PBS+1 mg/ml BSA+0.005% Tween-20. The ProteOn is configured such that each injection flows over each of the five Dkk-1 channels as well as the reference channel, and six Fab samples can be injected simultaneously. Fab dissociation from the Dkk-1 surface was monitored for 20 min. The chip surface was regenerated with a 30-sec injection of 8% EtOH, 8 mM NaOH. Clone 24 Fab was used as control. Level of binding during association, and rate of dissociation for each clone was very consistent between different ligand channels. […]

Row | Kd [nM] | Binder
1 | 5.51 | B1
2 | 5.72 | B2
3 | 2.88 | B3
4 | 22.9 | B4
5 | 16.9 | B5
6 | 0.808 | B6
7 | 0.048 | B7
8 | 0.533 | B8
9 | 0.99 | B9
10 | 0.947 | B10
11 | 0.569 | B11
12 | 7.5 | B12
13 | 12 | B13
14 | 11.8 | B14
15 | 7.7 | B15
16 | 12.1 | B16
17 | 0.555 | B17
18 | 0.164 | B18
19 | 7.3 | B19
20 | 8.72 | B20
21 | 1.15 | B21
22 | 5.52 | B22
23 | 7.8 | B23
24 | 4.9 | B24
25 | 0.276 | B25
26 | 5.4 | B26
27 | 7.3 | B27

Target: T1, Recombinant human Dkk-1 (R&D Systems …)
Assay: SPR screening 37C (BIAcore/ProteOn), Fab lysate over biotinylated human Dkk-1
Description: as §1
For the ProteOn assay, biotinylated human Dkk-1 was injected for 1 min at serial fold dilutions empirically determined to yield different levels of immobilization (150-3000 RU) on five channels of a ProteOn NLC Neutravidin sensor chip. The sixth channel was left unmodified to serve as a reference surface. Recombinant Fabs in filtered E. coli lysates were injected at high temperature (37° C.) for 50 sec at 20 μl/min. Running buffer consisted of PBS+1 mg/ml BSA+0.005% Tween-20. The ProteOn is configured such that each injection flows over each of the five Dkk-1 channels as well as the reference channel, and six Fab samples can be injected simultaneously. Fab dissociation from the Dkk-1 surface was monitored for 20 min. The chip surface was regenerated with a 30-sec injection of 8% EtOH, 8 mM NaOH. Clone 24 Fab was used as control. Level of binding during association, and rate of dissociation for each clone was very consistent between different ligand channels.

Row | koff [s⁻¹] | Binder
28 | 0.00551 | B1
29 | 0.00572 | B2
30 | 0.00288 | B3
31 | 0.0229 | B4
32 | 0.0169 | B5
33 | 0.000808 | B6
34 | 4.8e-05 | B7
35 | 0.000533 | B8
36 | 0.00099 | B9
37 | 0.000947 | B10
38 | 0.000569 | B11
39 | 0.0075 | B12
40 | 0.012 | B13
41 | 0.0118 | B14
42 | 0.0077 | B15
43 | 0.0121 | B16
44 | 0.000555 | B17
45 | 0.000164 | B18
46 | 0.0073 | B19
47 | 0.00872 | B20
48 | 0.00115 | B21
49 | 0.00552 | B22
50 | 0.0078 | B23
51 | 0.0049 | B24
52 | 0.000276 | B25
53 | 0.0054 | B26
54 | 0.0073 | B27

Target: T1, Recombinant human Dkk-1 (R&D Systems …)
Assay: SPR 37C (BIAcore/ProteOn), hDkk-1 series over captured IgG (taken so as kon is printed)

Row | Kd [nM] | koff [s⁻¹] | kon [M⁻¹ s⁻¹] | Binder
55 | 0.008 | 8.55e-05 | 1.13e+07 | B28
56 | 0.017 | 8.55e-05 | 5.18e+06 | B29

— patent publication US20130071921A1 (Pfizer, published 2013)
